Experimental data published in the supplement of paper PMC9170038.

System: MS2 coat protein
Assay: apparent KD of MS2 coat protein; designed switch direction (-1 OFF switch, 1 ON switch): 1; higher = weaker reporter binding
Method in brief: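 The buffer was Tris-HCl pH 7.5 with KCl, MgCl2, BSA, DTT, tRNA and Tween-20. In it, SNAP-549-labelled MS2 coat protein was titrated in doubling steps from 0.7 or 1.5 nM to 3 µM over chip-bound RNA switches transcribed by stalled E. coli RNA polymerase on Illumina chips. Apparent KD is the per-design median over clusters of curve fits to normalised fluorescence.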

[1] = Eterna round: R95, input ligand: FMN 200 uM
[2] = Eterna round: R95, input ligand: microRNA oligo, concentration not stated
[3] = Eterna round: R95, input ligand: none
[4] = input ligand: microRNA oligo, concentration not stated

Sequence	apparent KD of MS2 coat protein [1]	apparent KD of MS2 coat protein [2]	apparent KD of MS2 coat protein [3]	apparent KD of MS2 coat protein (input ligand: FMN 200 uM)	apparent KD of MS2 coat protein [4]	apparent KD of MS2 coat protein (input ligand: none)
CGUCCGGCCUGUGCUGGCCGGUUGCUUGUACAUGAGGAUCACCCAUGUUCUUGUGCAGGCUUUUUGCUCGUCUUGUG [salish99_mir208a_018] (puzzle: Sensor for hsa-mir-208a)	212 nM	25 nM	265 nM	–	–	–
CGUCGUUUGAUAGGAUAUCGCUUUACAUGAGGAUCGCCCAUGUUUACCACGCUGGUUUUUCUUUCCGAGAAGGAUUCUGAUGUU [salish99_SSNG02_r04_027] (Eterna round: R96, puzzle: Same State NG 2)	–	–	–	28.4 nM	10.5 nM	4.85 nM
CGUCGUUUGUUAGGAUAUCGCUAUACAUGAGGAUCACCCAUGUUUACCACGCUGGUUUUUCAUACCGAGAAGGAUUCUGAUGUU [salish99_SSNG02_r04_019] (Eterna round: R96, puzzle: Same State NG 2)	–	–	–	42.5 nM	31.6 nM	37.8 nM
CUAAAAGGAUGAGGAUAUGCAGAGGAUCACCCUGUAGAAGGCAACAGAUGAGGAUAUGCAGAGGAUCACCCUGUAGAAGGCAAC [pwkr ssNG DX.2] (Eterna round: R96, puzzle: Same State NG 1)	–	–	–	233 nM	56.8 nM	94.1 nM
CUAACAACAGGUUGCAGUGCUCGUCUCUAACAUGAGGAUCACCCAUGUAAUAGCCCGGUGGAAGCGCUCGGGUCACC [Tearor] (puzzle: Sensor for hsa-mir-208a)	28.3 nM	34.5 nM	30.9 nM	–	–	–
CUAUUAGGAUGAGGAUAUGCAGAGGAUCACCCUGUAGAAGGCAAUAGAUGAGGAUAUGCAGAGGAUCACCCUGUAGAAGGCAAC [pwkr ssNG DX.3] (Eterna round: R96, puzzle: Same State NG 1)	–	–	–	423 nM	98.9 nM	177 nM
CUCCAUUGGGUAGGAUAUCUAGGAUAUGGGAAAGACUAAGUCUGUAGGUCACCUAACCCAGAUGGAGAGAAGGACCCAACUCUC [pwkr ssNG2 2FMN + F9.41] (Eterna round: R96, puzzle: Same State NG 2)	–	–	–	8.17 nM	2.07 nM	12.3 nM
CUCCGGAAGCGAGGAUAUGCAGAGGAUCACCCUGCAGAAGGCGCCCUUGCGAGGAUAUGCAGAGGAUCACCCUGCAGAAGGCGC [pwkr ssNG DX.30] (Eterna round: R96, puzzle: Same State NG 1)	–	–	–	16.2 nM	15.4 nM	28 nM
CUGAGCAAGCAAGGAUAUCACGUCGUUUAGACGUGAGAAGGUGCUCCUUACAUGAGGAUCACCCAUGUAUAACAUGAAGCUCAG [SSNG1/10-A3] (Eterna round: R96, puzzle: Same State NG 1)	–	–	–	150 nM	273 nM	870 nM
CUGAGCAAUCAAGGAUAUCACGUCGAUUAGACGUGAGAAGGUGAUCAUUACAUGAGGAUCACCCAUGUAUUACAUGGAGCUCAG [Brourd's SSNG1/1-A2 mod 2] (Eterna round: R96, puzzle: Same State NG 1)	–	–	–	–	833 nM	–
CUGAGCAAUCUAGGAUAUCACGUCGAAUAGACGUGAGAAGGAGAUCAUAACAUGAGGAUCACCCAUGUAUUACAUGAAGCUCAG [SSNG1/7-A1] (Eterna round: R96, puzzle: Same State NG 1)	–	–	–	13.4 nM	11.6 nM	17.9 nM
GAAAAGGCAACGCAGGAUAUGAAAGGUGAAACAUGAGGAUCACCCAUGUGCUACCUUCCGAUAAAUCAGAAGGGCGACGCCUAAA [Usbemaus] (puzzle: Same State 2)	9.33 nM	8.96 nM	11.1 nM	–	–	–
GACAAUCUAUCUGAGGAUAUCAUGAAUAAAACAUGAGGAUCACCCAUGUGCAGGAGAACUGCAAAUGAGAAGGCAGAUAGAUUGG [Mat - Same State 2 - Mod - D10] (puzzle: Same State 2)	10 nM	37.2 nM	26.9 nM	–	–	–
GACAAUCUAUCUGAGGAUAUCAUGAAUAAAACAUGAGGAUCACCCAUGUGCAGGAUAACUGCAAAUGAGAAGGCAGAUAGAUUGU [Mat - Same State 2 - Mod - D7] (puzzle: Same State 2)	12.3 nM	24 nM	27.7 nM	–	–	–
GACAGGCAGGCUUUUUCCUCGUAGUGUAAACAUGAGGAUCACCCAUGUGCUCGCCCUGGAUCUUUGGAUCGCAGGAA [Tibeon] (puzzle: Sensor for hsa-mir-208a)	353 nM	124 nM	407 nM	–	–	–
GACCGCGAGGAAGGAUAUGGAGCCUUAUUGGCUCCAGAAGGUCCAUAAAGGACAUGAGGAUCACCCAUGUGGUGAGAAGCGGUC [Fiskers NG1ss - 27] (Eterna round: R96, puzzle: Same State NG 1)	–	–	–	–	788 nM	–

Sequence	apparent KD of MS2 coat protein [1]	apparent KD of MS2 coat protein [2]	apparent KD of MS2 coat protein [3]	apparent KD of MS2 coat protein (input ligand: FMN 200 uM)	apparent KD of MS2 coat protein [4]	apparent KD of MS2 coat protein (input ligand: none)
GACCGCGAGGAAGGAUAUGGAGCCUUAUUGGCUCCAGAAGGUCCAUAAAGGACAUGAGGAUCACCCAUGUGGUGUGAAGCGGUC [Fiskers NG1ss - 18] (Eterna round: R96, puzzle: Same State NG 1)	–	–	–	65.5 nM	407 nM	627 nM
GAGAGACGAUUAGGAUAUACGGUGAUAAUGAUAGUAGAAGGAAUUGACAUGAGGAUCACCCAUGUAGGAAUAAUCCAGAGAGAG [Parity 26 - Jieux - Same State NG 1] (Eterna round: R96, puzzle: Same State NG 1)	–	–	–	81.2 nM	93.2 nM	86.8 nM
GAGAGAUGGUUAGGAUAUUCGGUGAUAAUGAUAGAAGAAGGAACUGACAUGAGGAUCACCCAUGUGGGAAUAAUCCAGAGAGAG [Parity 20 - Jieux - Same State NG 1] (Eterna round: R96, puzzle: Same State NG 1)	–	–	–	103 nM	85 nM	107 nM
GAGCCAGUCCGAGGAUAUUCAUAUAAAUUAAAUACAUGAGGAUCACCCAUGUAGGCGGAGCCUUGGGAGAAGGCGGACUGGCUC [Xeonanisa>>5] (Eterna round: R96, puzzle: Same State NG 2)	–	–	–	22.7 nM	35.9 nM	58.4 nM
GAGCCAGUCCGAGGAUAUUCAUAUUACAUGAGGAUCACCCAUGUAGGCUCAGAAAAGGAGCCUUGGGAGAAGGCGGACUGGCUC [Xeonanisa<<3] (Eterna round: R96, puzzle: Same State NG 2)	–	–	–	13.4 nM	153 nM	217 nM
GAGGGACAGACCAACAUGAGGAUCACCCAUGUCCUCGCAGGUCAGGAUAUUAUGAGGAUCACCCGUGAGAAGGGACGGUGAACC (Eterna round: R96, puzzle: Same State NG 3)	–	–	–	606 nM	468 nM	488 nM
GAGGGACGGACGAACAUGAGGAUCACCCAUGUCCUCGGAGGUCAGGAUAUCCGGAGGUAGCCGAAGGAGAAGGGACGGUGAACC [AK SSNG3-V2-31.1] (Eterna round: R96, puzzle: Same State NG 3)	–	–	–	104 nM	51.5 nM	85.7 nM
GAGGGCGAAAGCAACAUGAGGAUCACCCAUGUUGUCGGAGGGCAGGAUAUCCGGCGAAAGCAGAAGGAGAAGGGUCGAAAAGAA [AK SSNG3-V2-39] (Eterna round: R96, puzzle: Same State NG 3)	–	–	–	15.5 nM	13.1 nM	21.4 nM
GAGUAGGAGUUACAGGAUAUAUGGAGGUGGACAUGAGGAUCACCCAUGUGAGAGAUGAGAGGAGGAUAGAAGGGUAAGGGAGUAA [JR_SS2_Sub029] (puzzle: Same State 2)	189 nM	153 nM	486 nM	–	–	–
GAGUAGUUGGGAGGAUAUCGAUUGUUAUAGAAUCGAGAAGGUUUUAACAUGAGGAUCACCCAUGUAGGACUAUUCCUGUGUAUC [Parity 73 - Jieux - Same State NG 1] (Eterna round: R96, puzzle: Same State NG 1)	–	–	–	127 nM	68.5 nM	107 nM
GAGUGGAGGAGAGGAUAUACAAUGAUAAUCACAGUAGAAGGUUCUAACAUGAGGAUCACCCAUGUAGGACUAUACCUGAGAGAA [Parity 48 - Jieux - Same State NG 1] (Eterna round: R96, puzzle: Same State NG 1)	–	–	–	12.7 nM	9.96 nM	16 nM
GAGUGGAGGAGAGGAUAUACAUUGAUAAUCACUGUAGAAGGUUCUAACAUGAGGAUCACCCAUGUAGGACUAUUCCUGAGAGUU [Parity 52 - Jieux - Same State NG 1] (Eterna round: R96, puzzle: Same State NG 1)	–	–	–	8.87 nM	10.1 nM	12.5 nM
GAGUGGCGAUUAGGAUAUACAGUGAUAAUGAUAGUAGAAGGAAUUGACAUGAGGAUCACCCAUGUAGGACUAAUCCAGAGAGAG [Parity 30 - Jieux - Same State NG 1] (Eterna round: R96, puzzle: Same State NG 1)	–	–	–	–	57 nM	–
GAGUUACAUGAGGAUCACCCAUGUGGUUGUGGAUAAGGAUAUAUGGUAGGAGGAGGAAUGAUAGAAGGUAUUAGGG [JR_SS1_Sub065] (puzzle: Same State 1)	–	52.9 nM	–	–	–	–
GCACUCCAAGGAGCUGCGACAUGAGGAUCACCCAUGUAAUCACAGGAUAUGCGAUUCCGAAUUUUGCAGAAGGGUGAUAAGAAC [Ratele] (Eterna round: R96, puzzle: Same State NG 3)	–	–	–	139 nM	18 nM	106 nM
